Assay results: PMC6834283, “Duplicate divergence of two bacterial small heat shock proteins reduces the demand for Hsp70 in refolding of substrates” (PLoS Genetics, 2019)

Experiments:
[1] = target: T1, firefly luciferase, thermally denatured (firefly, UniProt P08659 1-550 = luciferase); assay: co-sedimentation; sHsp-substrate assemblies isolated on a glycerol gradient, incubated 45 min at room temperature with buffer or with limiting or saturating DnaK/DnaJ/GrpE, then a second 10-60% glycerol gradient; pooled top, middle and bottom fractions by Western blot with IbpA antibodies; details: both partners purified
T1 construct: firefly luciferase (Promega), used as the aggregating substrate; Denatured at 44°C for 10 min in the presence of the sHsps; The partner is the unfolded, aggregating protein, not the native enzyme; source: bought: Promega
T1 sequence (P08659 whole entry): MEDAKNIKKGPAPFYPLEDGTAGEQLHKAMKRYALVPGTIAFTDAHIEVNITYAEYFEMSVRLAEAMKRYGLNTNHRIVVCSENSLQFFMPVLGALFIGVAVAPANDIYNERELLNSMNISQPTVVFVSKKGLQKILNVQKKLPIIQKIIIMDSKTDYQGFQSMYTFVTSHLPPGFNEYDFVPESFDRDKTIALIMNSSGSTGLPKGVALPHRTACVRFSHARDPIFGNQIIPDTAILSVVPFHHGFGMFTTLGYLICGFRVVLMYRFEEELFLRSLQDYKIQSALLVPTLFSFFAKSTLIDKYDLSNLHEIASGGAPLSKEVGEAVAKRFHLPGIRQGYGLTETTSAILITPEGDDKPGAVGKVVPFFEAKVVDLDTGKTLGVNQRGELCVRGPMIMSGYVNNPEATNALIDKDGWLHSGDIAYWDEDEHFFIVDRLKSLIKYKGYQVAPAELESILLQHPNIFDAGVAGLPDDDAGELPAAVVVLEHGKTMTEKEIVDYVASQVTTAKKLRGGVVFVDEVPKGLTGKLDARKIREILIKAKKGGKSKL

[2] = target: T2, C-His-tagged luciferase, aggregated on the BLI sensor (firefly, UniProt P08659 1-550 = luciferase); assay: BLI; aggregated C-His-tagged luciferase immobilised on Ni-NTA sensors (BLItz); 5 μM sHsps (1.66 μM IbpAEc with 3.34 μM IbpBEc for IbpABEc) heat-activated at 44°C for 5 min; room temperature, buffer D (50 mM Tris-HCl pH 7.5, 150 mM KCl, 20 mM Mg acetate, 2 mM DTT); 10 min binding, 1 h dissociation in buffer; details: both partners purified
T2 construct: firefly luciferase with a C-terminal His tag, used only in the BLI experiments; An anchoring layer was immobilised in 6 M urea on Ni-NTA sensors; A top aggregate layer was then formed at 44°C for 10 min; also called aggregated luciferase; immobilized luciferase aggregates; source: purified (Ni-NTA agarose); not shown: His tag, C-terminal, kept
T2 sequence (P08659 whole entry): as above

Row | Binder | binding result [1] | binding result [2]
1 | IbpA from Escherichia coli (natural protein, E. coli, UniProt P0C054 1-137, looked up, small heat shock protein IbpA, E. coli; Forms large undefined oligomers; also called IbpAEc; source: purified as described previously [23]) MRNFDLSPLYRSAIGFDRLFNHLENNQSQSNGGYPPYNVELVDENHYRIAIAVAGFAESELEITAQDNLLVVKGAHADEQKERTYLYQGIAERNFERKFQLAENIHVRGANLVNGLLYIDLERVIPEAKKPRRIEIN | binds | binds
2 | IbpABEc (IbpAEc and IbpBEc used together, two-sHsp system of E. coli) (complex, small heat shock protein IbpA, E. coli; as m1; small heat shock protein IbpB, E. coli; as m2; source: the two purified proteins (as described previously [23]) mixed at about 1:2) chain 1: MRNFDLSPLYRSAIGFDRLFNHLENNQSQSNGGYPPYNVELVDENHYRIAIAVAGFAESELEITAQDNLLVVKGAHADEQKERTYLYQGIAERNFERKFQLAENIHVRGANLVNGLLYIDLERVIPEAKKPRRIEIN chain 2: MRNFDLSPLMRQWIGFDKLANALQNAGESQSFPPYNIEKSDDNHYRITLALAGFRQEDLEIQLEGTRLSVKGTPEQPKEEKKWLHQGLMNQPFSLSFTLAENMEVSGATFVNGLLHIDLIRNEPEPIAAQRIAISERPALNS | binds | binds
